Data from US20220332804A1 (CSL INNOVATION, published 2022).

Tests used:
Assay in all cases: SPR, KD relative to WT C2;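 note: biacore SPR at 37 °C, anti-C2 mAbs captured on anti-human IgG chips with alanine or serine point mutants of C2 as analyte, KD from 1:1 fit compared with wild-type C2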
human C2 G677A = target: T1, human C2 G677A (human, UniProt P06681 21-752)
T1 sequence: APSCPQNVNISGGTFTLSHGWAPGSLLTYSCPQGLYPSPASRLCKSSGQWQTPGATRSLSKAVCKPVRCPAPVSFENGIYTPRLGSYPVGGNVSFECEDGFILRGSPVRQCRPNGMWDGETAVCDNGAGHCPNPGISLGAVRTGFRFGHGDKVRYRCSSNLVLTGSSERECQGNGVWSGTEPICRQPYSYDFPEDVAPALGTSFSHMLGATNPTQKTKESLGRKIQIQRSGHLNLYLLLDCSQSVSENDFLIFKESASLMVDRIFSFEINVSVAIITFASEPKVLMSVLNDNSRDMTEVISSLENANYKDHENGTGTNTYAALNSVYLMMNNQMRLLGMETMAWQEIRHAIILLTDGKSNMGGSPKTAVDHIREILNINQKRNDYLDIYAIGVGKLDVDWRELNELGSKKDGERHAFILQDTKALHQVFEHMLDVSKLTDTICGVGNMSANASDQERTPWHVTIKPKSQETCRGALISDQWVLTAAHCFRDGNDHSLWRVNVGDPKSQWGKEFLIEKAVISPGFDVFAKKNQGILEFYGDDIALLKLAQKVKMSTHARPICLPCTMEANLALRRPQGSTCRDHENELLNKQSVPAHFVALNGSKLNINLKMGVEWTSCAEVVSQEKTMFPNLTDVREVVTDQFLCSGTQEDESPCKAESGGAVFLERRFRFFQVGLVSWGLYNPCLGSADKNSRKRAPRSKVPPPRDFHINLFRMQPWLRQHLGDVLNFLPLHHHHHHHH
Description: (§1) Surface plasmon resonance (SPR, Biacore) was used for all binding affinity analyses. In brief, goat anti-human IgG was directly immobilised onto the carboxymethyl dextran surface of CM5 sensorchips to approximately 12,000 RU using standard NHS/EDC chemistry at pH 5. The immobilised antibody surface was pre-conditioned with ten injections of polyclonal human IgG (Privigen 60 s) prepared at 1 μg/mL. Ligands (anti-C2 mAbs) were captured at the beginning of each cycle as described below. An adjacent spot or flow cell in which only Polyclonal IgG was capture was used as a reference surface. The goat anti-human IgG Fc antibody surface was regenerate in 100 mM H3PO4, injected for 45 seconds at the end of each cycle. Experiments were performed at 37° C. and the flow rate of each experiment was kept constant at 30 μL/min.
(§2) Sensogram data was double-referenced against a reference anti-IgG surface (i.e. minus anti-C2 mAb) and blank buffer injections obtained within each experiment. The binding data was fit to 1:1 (kinetic or steady-state) model using local Rmax and null refraction index (RI=0) when appropriate. Buffers and solutions were filtered (0.22 μm) prior to use.

human C2 D417A = target: T2, human C2 D417A (human, UniProt P06681 21-752)
T2 sequence: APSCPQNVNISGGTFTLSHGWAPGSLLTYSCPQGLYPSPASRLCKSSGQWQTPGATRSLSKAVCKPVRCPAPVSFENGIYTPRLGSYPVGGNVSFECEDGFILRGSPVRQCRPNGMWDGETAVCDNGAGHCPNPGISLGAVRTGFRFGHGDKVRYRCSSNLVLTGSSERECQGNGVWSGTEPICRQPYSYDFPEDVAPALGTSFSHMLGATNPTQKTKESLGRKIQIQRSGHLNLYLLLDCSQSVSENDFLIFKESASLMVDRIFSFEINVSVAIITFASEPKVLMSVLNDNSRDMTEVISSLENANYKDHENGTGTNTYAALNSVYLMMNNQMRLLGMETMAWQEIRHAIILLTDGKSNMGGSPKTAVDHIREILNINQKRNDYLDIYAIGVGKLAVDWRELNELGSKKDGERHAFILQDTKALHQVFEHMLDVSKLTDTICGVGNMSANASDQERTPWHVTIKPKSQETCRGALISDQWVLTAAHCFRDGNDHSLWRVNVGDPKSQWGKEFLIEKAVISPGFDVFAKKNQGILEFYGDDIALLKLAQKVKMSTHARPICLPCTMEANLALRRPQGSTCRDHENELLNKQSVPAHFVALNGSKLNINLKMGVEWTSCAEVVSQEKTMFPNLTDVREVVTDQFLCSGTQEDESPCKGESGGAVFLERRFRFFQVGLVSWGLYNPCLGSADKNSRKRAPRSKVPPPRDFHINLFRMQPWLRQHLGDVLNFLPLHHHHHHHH
Description: as §1, §2

human C2 K415A = target: T3, human C2 K415A (human, UniProt P06681 21-752)
T3 sequence: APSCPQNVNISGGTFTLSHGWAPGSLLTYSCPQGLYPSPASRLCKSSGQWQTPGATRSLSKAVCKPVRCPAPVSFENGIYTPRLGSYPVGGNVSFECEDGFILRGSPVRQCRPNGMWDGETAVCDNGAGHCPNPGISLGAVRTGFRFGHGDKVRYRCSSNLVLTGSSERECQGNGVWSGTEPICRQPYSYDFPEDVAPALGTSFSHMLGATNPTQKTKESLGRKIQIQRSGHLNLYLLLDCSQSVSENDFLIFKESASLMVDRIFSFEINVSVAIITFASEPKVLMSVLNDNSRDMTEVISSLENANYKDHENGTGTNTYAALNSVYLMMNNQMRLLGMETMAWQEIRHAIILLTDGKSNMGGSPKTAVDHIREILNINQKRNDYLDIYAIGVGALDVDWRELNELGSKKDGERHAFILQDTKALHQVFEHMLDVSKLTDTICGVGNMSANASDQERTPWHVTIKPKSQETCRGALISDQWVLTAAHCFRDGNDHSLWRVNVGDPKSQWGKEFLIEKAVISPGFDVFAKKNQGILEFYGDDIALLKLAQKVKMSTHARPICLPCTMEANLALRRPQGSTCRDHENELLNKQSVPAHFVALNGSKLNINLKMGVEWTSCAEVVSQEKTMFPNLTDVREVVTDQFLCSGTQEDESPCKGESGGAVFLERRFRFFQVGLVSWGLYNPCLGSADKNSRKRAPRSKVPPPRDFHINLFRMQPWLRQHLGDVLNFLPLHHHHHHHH
Description: as §1, §2

human C2 H435A = target: T4, human C2 H435A (human, UniProt P06681 21-752)
T4 sequence: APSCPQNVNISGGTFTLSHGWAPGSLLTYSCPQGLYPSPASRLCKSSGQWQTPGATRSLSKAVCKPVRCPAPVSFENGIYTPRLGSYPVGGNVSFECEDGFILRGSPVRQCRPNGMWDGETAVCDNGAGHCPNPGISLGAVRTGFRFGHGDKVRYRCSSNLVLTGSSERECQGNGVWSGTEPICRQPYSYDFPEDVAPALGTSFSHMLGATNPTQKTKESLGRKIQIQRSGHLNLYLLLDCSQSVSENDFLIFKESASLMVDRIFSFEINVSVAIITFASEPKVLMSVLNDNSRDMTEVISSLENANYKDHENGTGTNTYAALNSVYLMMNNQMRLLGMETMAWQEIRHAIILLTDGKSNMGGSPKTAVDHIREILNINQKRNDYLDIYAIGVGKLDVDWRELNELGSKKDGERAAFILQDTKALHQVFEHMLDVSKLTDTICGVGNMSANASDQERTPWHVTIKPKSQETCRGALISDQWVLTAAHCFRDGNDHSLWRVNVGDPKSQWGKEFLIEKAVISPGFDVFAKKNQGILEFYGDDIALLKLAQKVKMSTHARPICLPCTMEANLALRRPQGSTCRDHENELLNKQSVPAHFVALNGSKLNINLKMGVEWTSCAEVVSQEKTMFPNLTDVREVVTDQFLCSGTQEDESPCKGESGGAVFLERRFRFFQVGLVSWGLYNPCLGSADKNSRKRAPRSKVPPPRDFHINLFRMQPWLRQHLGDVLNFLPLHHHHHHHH
Description: as §1, §2

B1: RF16-242 (antibody, human IgG4 S228P, lambda, V domains shown)
VH: EVQLLQSGAEVKKPGESLKISCKGSGYSFTSYWIGWVRQMPGKGLEWMGIIYPGDSDTRYSPSFQGQVTISADKSISTAYLQWSSLKASDTAMYYCARRGHYGDYFDYWGQGTLVTVSS
VL: SYELTQPPSVSVSPGQTARITCSGDALPKKYAYWYHQKSGQAPVLVIYEDRRRPSEIPERFSGSSSGTMATLTITGAQVEDEGVYFCYSRDRAGNQRVFGGGTQLTVLG
notes: pH-dependent anti-C2 antibody from a phage display library
Human C2 G677A
  Fold diff: 1 fold
Human C2 D417A
  Fold diff: 3 fold
Human C2 K415A
  Fold diff: 1 fold
Human C2 H435A
  Fold diff: 9 fold
